Experimental data as given in paper PMC3481545 (Biochemistry, 2012).
Residue numbers refer to the chain shown, from its start. Names may count otherwise.

T1: BMP-7 (UniProt P18075 293-431)
T1 sequence (looked up): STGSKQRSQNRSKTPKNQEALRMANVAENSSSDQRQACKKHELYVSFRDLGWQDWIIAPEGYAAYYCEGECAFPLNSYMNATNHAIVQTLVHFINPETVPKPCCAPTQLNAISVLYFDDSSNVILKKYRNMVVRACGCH

B1: human recombinant BMPR-II ECD, wild type (domain or fragment, UniProt Q13873 26-150, looked up)
chain: ASQNQERLCAFKDPYQQDLGIGESRISHENGTILCSKGSTCYGLWEKSKGDINLVKQGCWSHIGDPQECHYEECVVTTTPPSIQNGTYRFCCCSTDLCNVNFTENFPPPDTTPLSPPHSFNRDET
B2: BMPR-II ECD Y40Q (domain or fragment, human, UniProt Q13873 26-150, looked up)
chain: B1 chain with Y15Q
B3: BMPR-II ECD Y40G (domain or fragment, human, UniProt Q13873 26-150, looked up)
chain: B1 chain with Y15G
B4: BMPR-II ECD Y40P (domain or fragment, human, UniProt Q13873 26-150, looked up)
chain: B1 chain with Y15P
B5: BMPR-II ECD S107P (domain or fragment, human, UniProt Q13873 26-150, looked up)
chain: B1 chain with S82P
B6: BMPR-II ECD G47N (domain or fragment, human, UniProt Q13873 26-150, looked up)
chain: B1 chain with G22N
B7: BMPR-II ECD Y40R (domain or fragment, human, UniProt Q13873 26-150, looked up)
chain: B1 chain with Y15R
B8: GDF-5 (ligand, UniProt P43026 382-501, looked up)
chain: APLATRQGKRPSKNLKARCSRKALHVNFKDMGWDDWIIAPLEYEAFHCEGLCEFPLRSHLEPTNHAVIQTLMNSMDPESTPPTCCVPTRLSPISILFIDSANNVVYKQYEDMVVESCGCR
B9: Chimera BAB: BMPR-II ECD with the ActR-IIB A-loop (domain or fragment)
chain: ASQNQERLCAFKDPYQQDLGIGESRISHENGTILCSKGSTCYGLWEKSKGDINLVKQGCWDDFNCYDRQCVVTTTPPSIQNGTYRFCCCSTDLCNVNFTENFPPPDTTPLSPPHSFNRDET

Assays:
Experiment in all cases: SPR
BMP-7 = target: T1, BMP-7
BMPR-II ECD S107P = target: B5
[1] = target: B1
BMPR-II ECD Y40G = target: B3
BMPR-II ECD Y40P = target: B4
BMPR-II ECD G47N = target: B6
BMPR-II ECD Y40R = target: B7
BMPR-II ECD Y40Q = target: B2
Activin = Activin (UniProt P08476 311-426)
GDF-5 = target: B8

Binder: B1
Kd (BMP-7): 135 µM

Binder: B2
Kd (BMP-7): 129 µM

Binder: B3
Kd (BMP-7): 138 µM

Binder: B4
Kd (BMP-7): 157 µM

Binder: B5
Kd (BMP-7): 43 µM

Binder: B6
Kd (BMP-7): 92 µM

Binder: B7
Kd (BMP-7): 117 µM

Binder: B8
Kd (BMPR-II ECD S107P): 90 µM
Kd [1]: 221 µM
Kd (BMPR-II ECD Y40G): 123 µM
Kd (BMPR-II ECD Y40P): 200 µM
Kd (BMPR-II ECD G47N): 136 µM
Kd (BMPR-II ECD Y40R): 117 µM
Kd (BMPR-II ECD Y40Q): 175 µM

Binder: B9
Kd (BMP-7): 59 µM
Kd (Activin): 5 µM
Kd (GDF-5): 197 µM
